Data: patent US20210246166A1 (Bayer, published 2021)
Numbered stars: 1 amine (or outer) side, 2 acyl side, 3 side chain; on linkers, the order of the positions; unused ones are H or OH. Bridge positions count the residues as written; N and C are the ends. Square brackets hold non-standard residues; d marks the D form. Ends that are not written are not given here. Freidinger's Lactam = (2S)-2-[(3R)-3-amino-2-oxopyrrolidin-1-yl]-4-methylpentanoic acid (Freidinger's lactam), CC(C)C[C@@H](C(=O)[*:2])N1CC[C@@H](N[*:1])C1=O; Ida = iminodiacetic acid, O=C(CN(CC(=O)[*:3])[*:1])[*:2]; Pro(3S,4R-methano) = O=C(O)[C@H]1NC[C@@H]2C[C@@H]21; Oic = O=C(O)[C@@H]1C[C@@H]2CCCC[C@@H]2N1; tBuAla = CC(C)(C)C[C@H](N)C(=O)O; Pen = CC(C)(S)[C@H](N)C(=O)O; Sar = CNCC(=O)O

T1: recombinant rat MASP1 active protease (amino acids 302-704, C-terminal His Tag) (rat, UniProt Q8CHN8 302-704)
T1 sequence: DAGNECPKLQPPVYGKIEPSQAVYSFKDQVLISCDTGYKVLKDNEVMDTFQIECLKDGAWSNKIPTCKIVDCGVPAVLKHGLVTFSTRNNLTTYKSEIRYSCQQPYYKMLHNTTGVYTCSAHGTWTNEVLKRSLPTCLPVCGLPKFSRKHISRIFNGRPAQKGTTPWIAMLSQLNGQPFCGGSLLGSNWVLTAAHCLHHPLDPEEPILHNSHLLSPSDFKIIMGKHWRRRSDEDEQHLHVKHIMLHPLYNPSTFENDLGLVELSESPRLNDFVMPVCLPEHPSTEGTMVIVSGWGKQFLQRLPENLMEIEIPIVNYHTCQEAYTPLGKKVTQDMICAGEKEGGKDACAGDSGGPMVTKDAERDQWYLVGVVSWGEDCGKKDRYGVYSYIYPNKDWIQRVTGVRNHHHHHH

B1: Example 493: ((N-Me)G)-IC+SRSLP-(Oic)-I-(Pen)+IPY-OH (peptide)
peptide: [Sar]ICSRSLP[Oic]I[Pen]IPY-OH
modifications: disulfide 3-11; N-terminus assumed
SMILES: CC[C@H](C)[C@H](NC(=O)CNC)C(=O)N[C@H]1CSSC(C)(C)[C@@H](C(=O)N[C@H](C(=O)N2CCC[C@H]2C(=O)N[C@@H](Cc2ccc(O)cc2)C(=O)O)[C@@H](C)CC)NC(=O)[C@H]([C@@H](C)CC)NC(=O)[C@@H]2C[C@@H]3CCCC[C@@H]3N2C(=O)[C@@H]2CCCN2C(=O)[C@H](CC(C)C)NC(=O)[C@H](CO)NC(=O)[C@H](CCCNC(=N)N)NC(=O)[C@H](CO)NC1=O
B2: Example 492: ((N-Me)G)-IC+SRSLP-(Oic)-I-(Pen)+IPT-OH (peptide)
peptide: [Sar]ICSRSLP[Oic]I[Pen]IPT-OH
modifications: disulfide 3-11; N-terminus assumed
SMILES: CC[C@H](C)[C@H](NC(=O)CNC)C(=O)N[C@H]1CSSC(C)(C)[C@@H](C(=O)N[C@H](C(=O)N2CCC[C@H]2C(=O)N[C@H](C(=O)O)[C@@H](C)O)[C@@H](C)CC)NC(=O)[C@H]([C@@H](C)CC)NC(=O)[C@@H]2C[C@@H]3CCCC[C@@H]3N2C(=O)[C@@H]2CCCN2C(=O)[C@H](CC(C)C)NC(=O)[C@H](CO)NC(=O)[C@H](CCCNC(=N)N)NC(=O)[C@H](CO)NC1=O
B3: Example 527: ((N-Me)G)-IC+SRSLP-(Oic)-I-(Pen)+IP-(Freidinger's Lactam)-OH (peptide)
peptide: [Sar]ICSRSLP[Oic]I[Pen]IP[Freidinger's Lactam]-OH
modifications: disulfide 3-11; N-terminus assumed
SMILES: CC[C@H](C)[C@H](NC(=O)CNC)C(=O)N[C@H]1CSSC(C)(C)[C@@H](C(=O)N[C@H](C(=O)N2CCC[C@H]2C(=O)N[C@@H]2CCN([C@@H](CC(C)C)C(=O)O)C2=O)[C@@H](C)CC)NC(=O)[C@H]([C@@H](C)CC)NC(=O)[C@@H]2C[C@@H]3CCCC[C@@H]3N2C(=O)[C@@H]2CCCN2C(=O)[C@H](CC(C)C)NC(=O)[C@H](CO)NC(=O)[C@H](CCCNC(=N)N)NC(=O)[C@H](CO)NC1=O
B4: Example 487: ((N-Me)G)-IC+SRSLP-(Oic)-I-(Pen)+IPR-OH (peptide)
peptide: [Sar]ICSRSLP[Oic]I[Pen]IPR-OH
modifications: disulfide 3-11; N-terminus assumed
SMILES: CC[C@H](C)[C@H](NC(=O)CNC)C(=O)N[C@H]1CSSC(C)(C)[C@@H](C(=O)N[C@H](C(=O)N2CCC[C@H]2C(=O)N[C@@H](CCCNC(=N)N)C(=O)O)[C@@H](C)CC)NC(=O)[C@H]([C@@H](C)CC)NC(=O)[C@@H]2C[C@@H]3CCCC[C@@H]3N2C(=O)[C@@H]2CCCN2C(=O)[C@H](CC(C)C)NC(=O)[C@H](CO)NC(=O)[C@H](CCCNC(=N)N)NC(=O)[C@H](CO)NC1=O
B5: Example 526: ((N-Me)G)-IC+SRS-((tBu)A)-P-((1S,2S,5R)-3-azabicyclo[3.1.0]hexane-2-carboxylic acid)-I-(Pen)+IPD-OH (peptide)
peptide: [Sar]ICSRS[tBuAla]P[Pro(3S,4R-methano)]I[Pen]IPD-OH
modifications: disulfide 3-11; N-terminus assumed
SMILES: CC[C@H](C)[C@H](NC(=O)CNC)C(=O)N[C@H]1CSSC(C)(C)[C@@H](C(=O)N[C@H](C(=O)N2CCC[C@H]2C(=O)N[C@@H](CC(=O)O)C(=O)O)[C@@H](C)CC)NC(=O)[C@H]([C@@H](C)CC)NC(=O)[C@@H]2[C@H]3C[C@H]3CN2C(=O)[C@@H]2CCCN2C(=O)[C@H](CC(C)(C)C)NC(=O)[C@H](CO)NC(=O)[C@H](CCCNC(=N)N)NC(=O)[C@H](CO)NC1=O
B6: Example 495: ((N-Me)G)-IC+SRSLP-(Oic)-I-(Pen)+IPGd-OH (peptide)
peptide: [Sar]ICSRSLP[Oic]I[Pen]IPG[dD]-OH
modifications: disulfide 3-11; N-terminus assumed
SMILES: CC[C@H](C)[C@H](NC(=O)CNC)C(=O)N[C@H]1CSSC(C)(C)[C@@H](C(=O)N[C@H](C(=O)N2CCC[C@H]2C(=O)NCC(=O)N[C@H](CC(=O)O)C(=O)O)[C@@H](C)CC)NC(=O)[C@H]([C@@H](C)CC)NC(=O)[C@@H]2C[C@@H]3CCCC[C@@H]3N2C(=O)[C@@H]2CCCN2C(=O)[C@H](CC(C)C)NC(=O)[C@H](CO)NC(=O)[C@H](CCCNC(=N)N)NC(=O)[C@H](CO)NC1=O
B7: Example 494: ((N-Me)G)-IC+SRSLP-(Oic)-I-(Pen)+IPDA-OH (peptide)
peptide: [Sar]ICSRSLP[Oic]I[Pen]IPDA-OH
modifications: disulfide 3-11; N-terminus assumed
SMILES: CC[C@H](C)[C@H](NC(=O)CNC)C(=O)N[C@H]1CSSC(C)(C)[C@@H](C(=O)N[C@H](C(=O)N2CCC[C@H]2C(=O)N[C@@H](CC(=O)O)C(=O)N[C@@H](C)C(=O)O)[C@@H](C)CC)NC(=O)[C@H]([C@@H](C)CC)NC(=O)[C@@H]2C[C@@H]3CCCC[C@@H]3N2C(=O)[C@@H]2CCCN2C(=O)[C@H](CC(C)C)NC(=O)[C@H](CO)NC(=O)[C@H](CCCNC(=N)N)NC(=O)[C@H](CO)NC1=O

molecular target: T1, recombinant rat MASP1 active protease …; test: cell-based or functional assay

| Binder | rat MASP1 IC50 [nM] |
| --- | --- |
| B1 | 44 |
| [dP]ICSRSLP[Oic]I[Pen]IP[Ida]-OH (disulfide 3-11; also: HCl salt) [Example 528: pIC+SRSLP-(Oic)-I-(Pen)+IP-(Ida)-OH (HCl salt)] | 420 |
| B2 | 65 |
| B3 | 240 |
| B4 | 67 |
| B5 | 485 |
| B6 | 45 |
| B7 | 38 |
| [(S)‑Piperidine‑3‑Carboxylic Acid]ICSRSLP[Oic]I[Pen]IPD-OH (disulfide 3-11) [Example 489: ((S)-Piperidine-3-Carboxylic Acid)-IC+SRSLP-(Oic)-I-(Pen)+IPD-OH] | 42 |

molecular target: recombinant rat MASP2 active protease (amino acids 296-685, C-terminal His Tag) (rat, UniProt Q9JJS8 296-685); test: cell-based or functional assay
Sequence (Q9JJS8 other isoform, or with tags, fused parts or gaps limits assumed): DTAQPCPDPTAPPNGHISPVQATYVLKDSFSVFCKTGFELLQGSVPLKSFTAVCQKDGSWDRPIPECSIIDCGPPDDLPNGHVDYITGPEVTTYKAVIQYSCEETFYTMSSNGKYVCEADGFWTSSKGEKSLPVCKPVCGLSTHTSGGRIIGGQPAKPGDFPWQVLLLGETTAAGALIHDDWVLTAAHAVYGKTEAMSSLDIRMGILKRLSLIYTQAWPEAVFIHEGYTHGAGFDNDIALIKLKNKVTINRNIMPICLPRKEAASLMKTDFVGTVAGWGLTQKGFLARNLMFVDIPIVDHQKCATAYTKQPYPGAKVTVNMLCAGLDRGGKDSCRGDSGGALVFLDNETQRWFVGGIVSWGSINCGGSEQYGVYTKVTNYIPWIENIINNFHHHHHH

| Binder | rat MASP2 IC50 [nM] |
| --- | --- |
| B1 | 49 |
| [dP]ICSRSLP[Oic]I[Pen]IP[Ida]-OH (disulfide 3-11; also: HCl salt) [Example 528: pIC+SRSLP-(Oic)-I-(Pen)+IP-(Ida)-OH (HCl salt)] | 8.2 |
| B2 | 81 |
| B3 | 42 |
| B4 | 38 |
| B5 | 253 |
| B6 | 66 |
| B7 | 62 |
| [(S)‑Piperidine‑3‑Carboxylic Acid]ICSRSLP[Oic]I[Pen]IPD-OH (disulfide 3-11) [Example 489: ((S)-Piperidine-3-Carboxylic Acid)-IC+SRSLP-(Oic)-I-(Pen)+IPD-OH] | 22 |
